Holding throughout (assay): fluorescence polarisation
For orientation: Polarisation of emitted light reports the rotation of a fluorescent probe.

Assay [1] deals with KPNB1 HEAT, tag cleaved, for affinity measurements.
In assay [2] the target is 14-3-3 protein sigma (14-3-3 SFN), tag cleaved, for affinity measurements.
The target in assay [3] is KPNA4 ARM, MBP-tagged, for affinity measurements.
Assay [4] has as its target MDM2 SWIB, cleaved from the His-GST tag, for affinity measurements.
The target in assay [5] is TLN1 PTB, tag cleaved, for affinity measurements.

As usually defined, the Ki is the equilibrium dissociation constant of an inhibitor or competing ligand from its target. Take “KPNA2_(514-529) C-terminal synthetic peptide (from UniProt P52292 514-529)”: in assay [1], the inhibition constant (Ki) is 1000 µM.
MAP1A_(1836-1851) synthetic peptide: in assay [2], the Ki came out at 355 µM.
In assay [3], “NKX2-5_(192-207) K194R synthetic peptide (from UniProt P52952 192-207)” yielded a fold loss of affinity against wild-type NKX2-5 (192-207) of 10 fold.
For the substance “NUMB_(615-630) synthetic peptide (from UniProt P49757 615-630)”, the Ki in assay [4] amounted to 3.3 µM.
Still for that read-out and setting: as for “RNF115_(69-84) synthetic peptide (from UniProt Q9Y4L5 69-84)”, the figure is 0.17 µM.
The substance “integrin beta-3 ITB3_(763-778) synthetic peptide” yielded an inhibitory constant (Ki) in assay [5] of 500 µM.

The record behind these values is article doi:10.1101/2021.04.13.439572.
